This note sets out measurements from patent US20170224620A1 (Pfizer, published 2017).

The target in assay [1] is T1, Fc tagged recombinant human EGFR (rhEGFR-Fc, R&D systems, Cat#344-ER-050) (human, UniProt P00533 25-645).
T1 construct: Bought protein; also called apo-EGFR; not shown: Fc tag
Description: screening ELISA, peptide 100 µM against 0.7 nM biotin-EGF on coated rhEGFR. In general terms: An ELISA detects its analyte on a solid surface through an enzyme-linked reagent.

For assay [2], the target named is Fc tagged recombinant human EGFR (rhEGFR-Fc, R&D systems, Cat#344-ER-050) (human) (UniProt P00533). Described as above.
Assay [3] addresses T1, Fc tagged recombinant human EGFR …. Description: EGF competition ELISA, 10% nanoparticle conjugate.
Assay [4] shares this target. Description: EGF competition ELISA, 10% nanoparticle conjugate. As to the method: An alanine scan was performed on the amino acids within the cyclic portion of the peptide structure to determine which amino acids were critical for binding. Each amino acid within the peptide was individually replaced with alanine. […] Subsequently, an alanine scan of the flanking amino acids on P₁₋₃ was performed.
This is another data set of the same source.

Assay [5] shares this target. Description: SPR.
Assay [6] has the same target. As to the kind of experiment: SPR, response against peptide concentration, rhEGFR-Fc captured. As to the method:
(§1) Surface plasmon resonance (SPR) binding studies were carried out on a Biacore T200 instrument (GE Healthcare). […] The contact time and resulting amount of rhEGFR-Fc capture was varied based on the nature of the analyte, namely whether it was a peptide or nanoparticle.
(§2) Peptide binding assays were carried out in 10 mM PBS buffer supplemented with 0.05% surfactant P20 and 5% DMSO by volume, at 25° C. Peptides were injected over the rhEGFR-Fc surface for 60 s, followed by dissociation (buffer injection) for 60 s and regeneration with a 10 s pulse of 3M MgCl₂. A fresh rhEGFR-Fc surface was generated for each concentration of each peptide tested. Peptide binding data was analyzed by fitting to a 1:1 Langmuir kinetic model to obtain the on-rate (kₐ), off-rate (kd) and/or equilibrium binding constant (KD) of the interaction.
All of the peptides were synthesized and evaluated for EGFR binding using SPR (Table 7). […] FIGS. 8A and 8B show a summary of the SPR binding data for the peptides.
(In general: In SPR one partner is held on a chip, and binding of the other changes the refractive index at the surface.)

For assay [7], the target named is T2, EGF bound EGFR (rhEGFR-Fc with recombinant human EGF pre-injected in SPR or 50 nM EGF present in ELISA) (human, UniProt P00533 25-645; P01133 971-1023).
T2 construct: Complex of m1 and m5 as target; also called EGFR in the presence of EGF; With EGF; not shown: Fc tag
Description: P2 competition ELISA, 5% ligand density NP.

Assay [8] addresses T2, EGF bound EGFR (rhEGFR-Fc with …). Description: P2 competition ELISA, 5% nanoparticle conjugate.
The target is the same in assay [9]. As to the kind of experiment: P2 competition ELISA: rhEGFR on the plate, 1 nM P2-Biotin dimer as tracer, 50 nM EGF; concentration on a ligand molar basis. From the text: (§3) An additional assay was developed to provide an orthogonal assay to SPR during the evaluation of the P₂ peptide analogs and nanoparticle conjugates.
Assay [10] shares this target. Description: P2 competition ELISA, 1% ligand density NP.
For assay [11], the target named is T1, Fc tagged recombinant human EGFR …. Description: SPR, peptide over captured rhEGFR-Fc, without EGF. As to the method: as §1, §2
The two aromatic mutations P₂₋₉₈ and P₂₋₁₀₁ were combined into one peptide (P₂₋₁₀₂).

For assay [12], the target named is T2, EGF bound EGFR (rhEGFR-Fc with …). As to the kind of experiment: SPR, peptide over captured rhEGFR-Fc after rhEGF pre-injection. Here is the method:
as §1, §2

Assay [13] shares this target. As to the kind of experiment: P2 competition ELISA: rhEGFR on the plate, 1 nM P2-Biotin dimer as tracer, 50 nM EGF.
Excerpt: as §3

Bridges are numbered along the chain shown (N, C = ends). Primed or numbered codes have the meaning given here. [ ]: non-standard residue; d: D form. Trp(5-OMe) = COc1ccc2[nH]cc(C[C@H](N)C(=O)O)c2c1; Igl = N[C@H](C(=O)O)C1Cc2ccccc2C1; Pen = CC(C)(S)[C@H](N)C(=O)O; DBCO′ = dibenzocyclooctyne

As to H-YRDLKWWELR-NH2 [EGFf-10], in assay [1], the “% inhibition of EGF” value was < 20%.
Same read-out and setting: the value for H-RCQYRDLKWW-NH2 [EGFf-9] was 63.8%.
On to H-DGYCLHDGVC-NH2 (cysteine pairing not given here) [EGFf-3], for which, in assay [2], the % inhibition of EGF turned out to be 62.5%.

B1: 10% P1 nanoparticle (other)
peptide: Ac-SECFPLAPDWLSCILGGK(DBCO′)-NH2
modifications: disulfide 3-13; also: DBCO clicked to azide PLA-PEG nanoparticle, 10 mol %
notes: Multivalent nanoparticle conjugate; also called P1 conjugated to nanoparticle at 10 mol %; P1 NP
As to B1, the IC50 – broadly, the concentration that inhibits the measured activity by half – in assay [3] amounted to 211 µg/mL.

B2: 10% P1-3 nanoparticle (other)
peptide: Ac-SECFPAAPDWLSCILGGK(DBCO′)-NH2
modifications: disulfide 3-13; also: DBCO clicked to azide PLA-PEG nanoparticle, 10 mol %
notes: also called P1-3 NP; P1-3 (Leu6-Ala) conjugate
Regarding B2, the IC50 in assay [3] is 10.3 µg/mL.
As to Ac-AECFPAAPDWLSCILGGK(DBCO′)-NH2 (other, disulfide 3-13; also: DBCO clicked to azide PLA-PEG nanoparticle, 10 mol %) [10% P1-3-1 nanoparticle], the “10% NP Relative IC50 (normalized to P1)” value in [4] stood at 1 ratio.
Same read-out and setting: for Ac-SECAPLAPDWLSCILGGK(DBCO′)-NH2 (other, disulfide 3-13; also: DBCO clicked to azide PLA-PEG nanoparticle, 10 mol %) [10% P1-1 nanoparticle] the value was ~0.3 ratio.
Ac-CFPAAPDWLSCGGK(DBCO′)-NH2 (disulfide 1-11 (inferred)) [P1-3-7]: in assay [5], the binding result is on record as “no binding”.
Take Ac-SGCLDALWQCVY-NH2 (disulfide 3-10 (inferred), named singly only on the sheet) [Peptide 4]: the binding result in assay [6] is on record as “binds”.

B3: 5% P2 nanoparticle (other)
peptide: Ac-DPCTWEVWGRECLQGGK-NH2
modifications: disulfide 3-12; not fully specified (residue 17)
notes: also called P2 5% Ligand Density NP; parent P2 conjugated nanoparticle (5%)
With B3, the IC50 worked out at 4.3 µg/mL in assay [7] and 6 µg/mL in assay [8]. In addition, the “IC50 (read off the curve)” value in assay [9] is ~9 nM.
As for Ac-MFCFRWYAGWSCVS-NH2 (disulfide 3-12 (inferred), named singly only on the sheet) [Peptide 8], the binding result in assay [6] is “binds”.
For {DBCO′}-SECFPAAPDWLSCIL-NH2 (disulfide 3-13 (inferred), also called Alternate DBCO placement) [P1-3-14], the binding result in assay [5] is on record as “no binding”.

B4: Peptide 1 (peptide)
peptide: Ac-SECFPLAPDWLSCIL-NH2
modifications: disulfide 3-13 (inferred)
notes: named singly only on the sheet; also called free literature peptide without the GGK(DBCO) tail
Consider B4, for which, in [6], the binding result is “binds”.
As to Ac-CFPAAPDWLSCGGK(DBCO′)-NH2 (disulfide 1-11 (inferred)) [P1-3-6], in assay [5], the binding result is recorded as “no binding”.
As for Ac-DPCTWEVWGRECLQGGK-NH2 (other, disulfide 3-12; not fully specified (residue 17), also called P2 1% Ligand Density NP) [1% P2 nanoparticle], the IC50 in assay [10] was 81 µg/mL. In addition, the “IC50 (read off the curve)” value in [9] was ~30 nM.

B5: P2-55 (Ac-DPPen…enLQGGK(PEG4-DBCO)-CONH2) (peptide)
peptide: DPXTWEVWGREXLQGGK
modifications: N-terminal acetyl; penicillamine at 3 and 12, disulfide; Lys17(PEG4-DBCO); C-terminal amide
notes: also called Pen analog
Turning to B5, the dissociation constant (Kd) (usually the concentration at which binding is half-saturated) in assay [11] worked out at 74 nM; in [12], 69 nM.

B6: P2-2/55 (Ac-DAPen…enLQGGK(DBCO)-CONH2) (peptide)
peptide: DAXTWEVWGREXLQGGK
modifications: N-terminal acetyl; penicillamine at 3 and 12, disulfide; Lys17(DBCO); C-terminal amide
notes: also called DA PenPen
As to B6, the Kd in assay [11] is 137 nM; in [12], 97 nM.

B7: 5% P2-2/55 nanoparticle (other)
peptide: DAXTWEVWGREXLQGGK
modifications: not fully specified; N-terminal acetyl; penicillamine at 3 and 12, disulfide; Lys17(DBCO) clicked to azide PLA-PEG nanoparticle at 5%; C-terminal amide
notes: also called P2-2/55 [DA PenPen]; NP; Ala2-Pen
Regarding B7, in [8], the IC50 turned out to be 6.3 µg/mL and the “Rel. Diff. (against P2 NP)” value was found to be 1.05 ratio.
On to Ac-DP[Pen]T[Igl]EV[Trp(5-OMe)]GRE[Pen]LQGGK(DBCO′)-NH2 (disulfide 3-12, also called Aro PenPen) [P2-55/102 (Ac-DPPenT(2Ind)GEV(5MeO)WGREPenLQGGK(DBCO)-CONH2)], for which the Kd is 72 nM in [11] and 75.4 nM in assay [12].

B8: P2-2/55/102 (Ac-DAPenT(2Ind)GEV(5MeO)WGREPenLQGGK(DBCO)-CONH2) (peptide)
peptide: Ac-DA[Pen]T[Igl]EV[Trp(5-OMe)]GRE[Pen]LQGGK(DBCO′)-NH2
modifications: disulfide 3-12
notes: also called DA Aro PenPen; triple mutant
B8: the Kd in [11] was 53 nM; in [12] it was 33.4 nM.

B9: P2 (Ac-DPCTWEVWGRECLQGGK(PEG4-DBCO)-CONH2) (peptide)
peptide: Ac-DPCTWEVWGRECLQGGK(PEG4‑DBCO)-NH2
modifications: disulfide 3-12
notes: also called P2 DBCO conjugate; parent peptide (P2)
Turning to B9, the “IC50 (read off the curve)” value in assay [13] is ~200 nM.
Take Ac-DPCT[Igl]EV[Trp(5-OMe)]GRECLQGGK(PEG4‑DBCO)-NH2 (disulfide 3-12, also called aromatic analog) [P2-102 (Ac-DPCT(2Ind)GEV(5MeO)WGRECLQGGK(PEG4-DBCO)-CONH2)]: the Kd stood at 38 nM in assay [11] and 32 nM in assay [12].
Consider Ac-DACT[Igl]EV[Trp(5-OMe)]GRECLQGGK(DBCO′)-NH2 (disulfide 3-12, also called DA Aro) [P2-2/102 (Ac-DACT(2Ind)GEV(5MeO)WGRECLQGGK(DBCO)-CONH2)], for which the Kd in assay [11] is 23.8 nM; in assay [12] it was 23.3 nM.
